{"source": "paper PMC5827136", "biological_target": "Histone H4 (UniProt P62805)", "test": "SPR", "data": [{"substance": "protein SIC (Streptococcal Inhibitor of Complement) (natural protein)", "values": [{"measurement": "Kd", "result": 17.6, "unit": "nM"}, {"measurement": "koff", "result": 0.000591, "unit": "s⁻¹"}, {"measurement": "kon", "result": 33500, "unit": "M⁻¹ s⁻¹"}]}]}
